Source: patent US20180044653A1, “Mutant Yeast Strain Capable of Degrading Cellobiose” (Institut National de la Recherche Agronomique, priority 2015, published 2018)

Columns and labels:
Experiment in all cases: Enzyme kinetics on glycoside substrates, released glucose, Michaelis-Menten (Bgl1-His6)
Type in all cases: biochemical, Yarrowia lipolytica
Details in all cases: other: apparent, 0.120 nM Bgl1-His6, mean of three experiments, SD below 10%, pH 7.4, 28.0 °C
[1] = substrate: CCCCCCCCO[C@@H]1O[C@H](CO)[C@@H](O)[C@H](O)[C@H]1O
Method: (§1) Y. lipolytica JMY1212 overproducing Bgl1-His6 and Bgl2 were grown in 200 mL YTD medium at 130 rpm, 28° C. for 36 h before centrifugation at 8,000×g for 5 min. For purification of Bgl1-His6, the cell pellet was washed, suspended in 50 mL phosphate buffer (50 mM, pH 7.4) and homogenized over a 3-min period using a MP FastPrep-24 Instrument. After centrifugation (8,000×g for 5 min at 4° C.), the supernatant was applied to 2 mL of TALON Metal Affinity Resin (Clontech Takara-Bio, Kyoto, Japan) and protein was eluted using imidazole buffer according to the manufacturer's instructions.
(§2) When using aryl-substrates, the standard assay method was employed, simply replacing pNPGlc by another substrate as appropriate. For oligosaccharides, the release of glucose was quantified using an enzyme kit (D-Fructose/D-Glucose Assay Kit, liquid stable, Megazyme). […] Initial rates were fitted to the Michaelis-Menten kinetic equation using a nonlinear regression (SigmaPlot 10) to extract the apparent KM and kcat (Segel, 1993).

[2] = substrate: OC[C@H]1O[C@@H](OC[C@H]2OC(O)[C@H](O)[C@@H](O)[C@@H]2O)[C@H](O)[C@@H](O)[C@@H]1O
Method: as §1, §2

[3] = substrate: OC[C@H]1O[C@@H](O[C@H]2C(O)O[C@H](CO)[C@@H](O)[C@@H]2O)[C@H](O)[C@@H](O)[C@@H]1O
Method: as §1, §2

[4] = substrate: OC[C@H]1O[C@@H](O[C@H]2[C@H](O)[C@@H](CO)OC(O)[C@@H]2O)[C@H](O)[C@@H](O)[C@@H]1O
Method: as §1, §2

[5] = substrate: OC[C@H]1O[C@@H](O[C@H]2[C@H](O)[C@@H](O)C(O)O[C@@H]2CO)[C@H](O)[C@@H](O)[C@@H]1O
Method: as §1, §2

[6] = substrate: OC[C@H]1O[C@@H](O[C@H]2[C@H](O)[C@@H](O)[C@H](O[C@H]3[C@H](O)[C@@H](O)C(O)O[C@@H]3CO)O[C@@H]2CO)[C@H](O)[C@@H](O)[C@@H]1O
Method: as §1, §2

[7] = substrate: OC[C@H]1O[C@@H](O[C@H]2[C@H](O)[C@@H](O)[C@H](O[C@H]3[C@H](O)[C@@H](O)[C@H](O[C@H]4[C@H](O)[C@@H](O)C(O)O[C@@H]4CO)O[C@@H]3CO)O[C@@H]2CO)[C@H](O)[C@@H](O)[C@@H]1O
Method: as §1, §2

[8] = substrate: OC[C@H]1O[C@@H](O[C@H]2[C@H](O)[C@@H](O)[C@H](O[C@H]3[C@H](O)[C@@H](O)[C@H](O[C@H]4[C@H](O)[C@@H](O)[C@H](O[C@H]5[C@H](O)[C@@H](O)C(O)O[C@@H]5CO)O[C@@H]4CO)O[C@@H]3CO)O[C@@H]2CO)[C@H](O)[C@@H](O)[C@@H]1O
Method: as §1, §2

[9] = substrate: OC[C@H]1O[C@@H](O[C@H]2[C@H](O)[C@@H](O)[C@H](O[C@H]3[C@H](O)[C@@H](O)[C@H](O[C@H]4[C@H](O)[C@@H](O)[C@H](O[C@H]5[C@H](O)[C@@H](O)[C@H](O[C@H]6[C@H](O)[C@@H](O)C(O)O[C@@H]6CO)O[C@@H]5CO)O[C@@H]4CO)O[C@@H]3CO)O[C@@H]2CO)[C@H](O)[C@@H](O)[C@@H]1O
Method: as §1, §2

B1: Yarrowia lipolytica β-glucosidase Bgl1-His6 (YALI_BGL1, YALI0F16027g, SEQ ID NO: 4; mature SEQ ID NO: 1), His6-tagged (Yarrowia lipolytica CLIB122) (protein)
chain: SPDWYPTPEIGSITSDWADALGESMDILAQLTLPEKVNITTGTGWRGGQCVGNTGAVPRLGIKGLCLQDGPLGVRFADFVNVFPCQNAMAATFDRILVHQRGTAIGRQSRLKGVDVHLGPVVGPLGRHATGGRNWEGFSPDPYLSGKLAFEAILGVQEEGVLATIKHFIGNEQEHYRRAEEWRDGFGFKDLKDAVSSNIEDRALHELYMWPFADAVRANVGSVMCSYNYVNGTQACQNSDLLNGKLKSELGFQGFVMSDWFAQGSGVSNALAGMDMSMPGNDVDELETVFWGEQLTRMVANGTLPEARLDDMVLRILTPLIYFGIDDRTPNFSSFVDTTVGSPHPAAKHSKKVKDVITNYHLDVRDQFAANVALDSARGAVVLLFNDGILPLKNISAIGVFGVGSRLGPNGAVCGENMQCSDGALIEGWGSGTAYPTEYESPYEALHKKASLLEVSVTGTTESWDMRLPLELAGDTDVNIVYVLANSGESTANVDKNLGDRRNVSLWHNGDELINTVASQGQTVVVVTTVGQVDMTAWLNHPNISAVLLTAPAGDYGGKAIADVLFGEVNPSGKLPYTIAANTSDYIPIVTKIPRDGAPQSDFVEGIYLDYKWYDKFERTPLYEFGYGLSYTTYSFSNLHLDVKEISEFLPPRPVPVQVTKPKMTNIDIEDLYVPNDFKMIDGLVYPWILNASAPLADSQTQFPFANGAGHVSDASGGVGGHPWLWSNAVTVTHNTTNCGDVAGRVVSQLYVAFPETLIDSPPVQLRGFDKSKLLNPGESQMTEYNLNWRDLAIWDVELQSWRVQRGEYSVYIGHSSREFELCETFTL
Km [1]: 0.86 mM | kcat [1]: 32.8 s⁻¹ | kcat/Km [1]: 38100 M⁻¹ s⁻¹ | Km [2]: 1.16 mM | kcat [2]: 43.6 s⁻¹ | kcat/Km [2]: 37600 M⁻¹ s⁻¹ | Km [3]: 2.25 mM | kcat [3]: 28.4 s⁻¹ | kcat/Km [3]: 14800 M⁻¹ s⁻¹ | Km [4]: 0.68 mM | kcat [4]: 75.6 s⁻¹ | kcat/Km [4]: 111000 M⁻¹ s⁻¹ | Km [5]: 0.26 mM | kcat [5]: 21.1 s⁻¹ | kcat/Km [5]: 81100 M⁻¹ s⁻¹ | Km [6]: 0.43 mM | kcat [6]: 20.5 s⁻¹ | kcat/Km [6]: 47700 M⁻¹ s⁻¹ | Km [7]: 1.89 mM | kcat [7]: 30.9 s⁻¹ | kcat/Km [7]: 16300 M⁻¹ s⁻¹ | Km [8]: 2.18 mM | kcat [8]: 29.5 s⁻¹ | kcat/Km [8]: 13500 M⁻¹ s⁻¹ | Km [9]: 3.01 mM | kcat [9]: 31.5 s⁻¹ | kcat/Km [9]: 10500 M⁻¹ s⁻¹
